The target of series [1] is T1, RepB OBD (origin binding domain), wt (Streptococcus plasmid pMV158, UniProt P13921 1-131).
T1 sequence: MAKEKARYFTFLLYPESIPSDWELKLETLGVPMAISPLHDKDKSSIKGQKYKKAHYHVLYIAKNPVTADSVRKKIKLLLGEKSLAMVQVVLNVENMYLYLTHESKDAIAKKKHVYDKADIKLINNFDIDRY
The series is described as follows: EMSA; EMSA: 20 mM Tris-HCl pH 8.0, 5 mM DTT, 300 mM NaCl, 20 nM DNA, 20 min 25 C; footprinting same buffer; SPR: 10 mM HEPES pH 7.4, 150 mM NaCl, 3 mM EDTA, 0.005% P20. To be noted: protein: recombinant; tags: none; label: 5'-Cy5 (top); blunt. Background: Mobility shift assays separate free from complexed probe on a gel.

Series [2] has as its target T1, RepB OBD (origin binding domain), wt. The series is described as follows: EMSA; per DDR site, independent binding, complexes C1-C3; Kd ~0.8 uM; EMSA: 20 mM Tris-HCl pH 8.0, 5 mM DTT, 300 mM NaCl, 20 nM DNA, 20 min 25 C; footprinting same buffer; SPR: 10 mM HEPES pH 7.4, 150 mM NaCl, 3 mM EDTA, 0.005% P20. To be noted: protein: recombinant; tags: none; label: 5'-Cy5 (top) for EMSA; 32P at both 5' ends for footprinting; blunt.

For series [3] the target is unchanged. The series is described as follows: SPR; HBS-EP pH 7.4, 150 mM NaCl; specific DNA is 1DDR in text, DDRC in Fig 3; EMSA: 20 mM Tris-HCl pH 8.0, 5 mM DTT, 300 mM NaCl, 20 nM DNA, 20 min 25 C; footprinting same buffer; SPR: 10 mM HEPES pH 7.4, 150 mM NaCl, 3 mM EDTA, 0.005% P20. To be noted: protein: recombinant; tags: none; label: 5'-Cy5 (top) for EMSA; 5'-biotin for SPR; blunt. (In general: SPR reads the build-up and loss of mass on a sensor chip optically.)

Series [4] has the same target. The series is described as follows: SPR; HBS-EP pH 7.4, 150 mM NaCl; Results text names 1DDR, but Methods, Table S1 and Fig 3 legend name DDRC; EMSA: 20 mM Tris-HCl pH 8.0, 5 mM DTT, 300 mM NaCl, 20 nM DNA, 20 min 25 C; footprinting same buffer; SPR: 10 mM HEPES pH 7.4, 150 mM NaCl, 3 mM EDTA, 0.005% P20. To be noted: protein: recombinant; tags: none; label: 5'-Cy5 (top) for EMSA; 5'-biotin for SPR; blunt.

Series [5] has the same target. Briefly: EMSA; complex half-life <10 s; EMSA: 20 mM Tris-HCl pH 8.0, 5 mM DTT, 300 mM NaCl, 20 nM DNA, 20 min 25 C; footprinting same buffer; SPR: 10 mM HEPES pH 7.4, 150 mM NaCl, 3 mM EDTA, 0.005% P20. As to conditions: protein: recombinant; tags: none; label: 5'-Cy5 (top) for EMSA; 5'-biotin for SPR; blunt.
Series [6] concerns the molecule itself. Briefly: crystal structure; full-length RepB without DNA; hanging drop, 100 mM Na/K phosphate pH 6.2, 200 mM NaCl, 10% PEG 8000; space group P21, 2.77 A.
In the next series the target is OBD R72A (Streptococcus plasmid pMV158, UniProt P13921 1-131, R72A). The series is described as follows: EMSA; EMSA: 20 mM Tris-HCl pH 8.0, 5 mM DTT, 300 mM NaCl, 20 nM DNA, 20 min 25 C; footprinting same buffer; SPR: 10 mM HEPES pH 7.4, 150 mM NaCl, 3 mM EDTA, 0.005% P20. To be noted: protein: recombinant; label: 5'-Cy5 (top); blunt.
For the next series, the target named is OBD K76A (Streptococcus plasmid pMV158, UniProt P13921 1-131, K76A). The description is as above. As to conditions: protein: recombinant; label: 5'-Cy5 (top); blunt.
For the next series, the target named is OBD triple mutant (Streptococcus plasmid pMV158, UniProt P13921 1-131, K3A;E4A;K5A). The series is described as above. To be noted: protein: recombinant; label: 5'-Cy5 (top); blunt.
For a further series, the target named is OBD quadruple mutant (Streptococcus plasmid pMV158, UniProt P13921 1-131, R72A;K73A;K74A;K76A). The description is as above. As to conditions: protein: recombinant; label: 5'-Cy5 (top); blunt.
The next series deals with OBD K5A (Streptococcus plasmid pMV158, UniProt P13921 1-131, K5A). The description is as above. As to conditions: protein: recombinant; label: 5'-Cy5 (top); blunt.
For the next series, the target named is OBD E4A (Streptococcus plasmid pMV158, UniProt P13921 1-131, E4A). The series is described as above. As to conditions: protein: recombinant; label: 5'-Cy5 (top); blunt.

B1: DDRR (dsDNA)
DNA 1: CTTTTCGGCGACTTTTTAG
DNA 2: CTAAAAAGTCGCCGAAAAG
As to B1, the Kd in series [1] is about 1000 nM.

B2: 3DDR (dsDNA)
DNA 1: AATCTCGGCGACTTTTCGGCGACTTTTCGGCGACTTTTTAGA
DNA 2: TCTAAAAAGTCGCCGAAAAGTCGCCGAAAAGTCGCCGAGATT
Take B2: the Ka in series [2] turned out to be 1.2 ± 0.4 µM⁻¹.

B3: NS (dsDNA)
DNA 1: CGGGTCGGTAATTGGGTTT
DNA 2: AAACCCAATTACCGACCCG
As for B3, the binding signal in [3] is ~15 fold lower affinity than specific DNA.

B4: DDRC (dsDNA)
DNA 1: CTTTTCGGCGACTTTTCGG
DNA 2: CCGAAAAGTCGCCGAAAAG
Consider B4, for which the Kd was 220 ± 10 nM in series [4] and about 1000 nM in series [5].

B5: DDRL (dsDNA)
DNA 1: AATCTCGGCGACTTTTCGG
DNA 2: CCGAAAAGTCGCCGAGATT
As to B5, the dissociation constant Kd in series [1] is about 1000 nM.

B6: RepB, replication initiation protein of plasmid pMV158 (full-length hexamer) (natural protein, streptococcal plasmid pMV158, UniProt P13921 1-210, looked up)
chain: MAKEKARYFTFLLYPESIPSDWELKLETLGVPMAISPLHDKDKSSIKGQKYKKAHYHVLYIAKNPVTADSVRKKIKLLLGEKSLAMVQVVLNVENMYLYLTHESKDAIAKKKHVYDKADIKLINNFDIDRYVTLDVEEKTELFNVVVSLIRAYTLQNIFDLYDFIDENGETYGLTINLVNEVIAGKTGFMKLLFDGAYQRSKRGTKNEER
notes: RepB, replication initiator (HUH endonuclease) of the streptococcal plasmid pMV158; Crystallised without DNA; a phosphate sits in each active site instead of Mn2+; also called RepB6; full-length RepB
For B6, the “stoichiometry N” value in series [6] was 6.

B7: 1DDR (dsDNA)
DNA 1: AATCTCGGCGACTTTTTAGA
DNA 2: TCTAAAAAGTCGCCGAGATT
With B7, the Kd with OBD R72A came to 1700 ± 200 nM; with OBD K76A, 5500 ± 700 nM; with OBD triple mutant, 1100 ± 100 nM; in [1], 1100 ± 100 nM; in the series with OBD K5A, 1800 ± 200 nM; with OBD E4A it was 600 ± 100 nM. In the series with OBD quadruple mutant, the binding result is reported as “no binding”.

The term Kd denotes the constant that tells how readily two partners part at equilibrium. One may read the stoichiometry N as a count of units in the complex or per binding partner.
